Tests used:
GlnR [1] = target: T1, GlnR (Paenibacillus sabinae T27, UniProt X4ZZY3 1-136); assay: EMSA; GlnR 4-1024 nM; EMSA: 20 ul, 1 ug poly[d(A-T)], 0.3 nM probe, 30 min, 25 C; binding buffer (given for protein dialysis) 20 mM HEPES pH 7.6, 1 mM EDTA, 10 mM (NH4)2SO4, 1 mM DTT, 0.2% Tween 20, 30 mM KCl. SPR: SA chip, 250 RU DNA, GlnR 0-500 nM with or without 25 nM GS; details: protein: recombinant; tags: N-His6; chain copies: 2; label: 3' DIG (Methods); blunt
T1 sequence: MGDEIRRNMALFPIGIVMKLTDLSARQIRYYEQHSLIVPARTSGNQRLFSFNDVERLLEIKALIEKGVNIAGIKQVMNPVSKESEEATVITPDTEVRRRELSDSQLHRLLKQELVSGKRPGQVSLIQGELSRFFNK

GlnR [2] = target: T1, GlnR; assay: SPR; GlnR alone, 0-500 nM; affinity significantly higher than site II; EMSA: 20 ul, 1 ug poly[d(A-T)], 0.3 nM probe, 30 min, 25 C; binding buffer (given for protein dialysis) 20 mM HEPES pH 7.6, 1 mM EDTA, 10 mM (NH4)2SO4, 1 mM DTT, 0.2% Tween 20, 30 mM KCl. SPR: SA chip, 250 RU DNA, GlnR 0-500 nM with or without 25 nM GS; details: protein: recombinant; tags: N-His6; chain copies: 2; label: 5' biotin on capture linker S3; 3' overhang 20 nt on strand 2, annealed to capture linker (strand 3)
AdeR [3] = target: T2, AdeR (Paenibacillus sabinae T27, UniProt X4ZCB7 1-417); assay: EMSA; AdeR 100-600 nM; legend misprints 'mutated GlnR-binding site'; EMSA: 20 ul, 1 ug poly[d(A-T)], 0.3 nM probe, 30 min, 25 C; binding buffer (given for protein dialysis) 20 mM HEPES pH 7.6, 1 mM EDTA, 10 mM (NH4)2SO4, 1 mM DTT, 0.2% Tween 20, 30 mM KCl. SPR: SA chip, 250 RU DNA, GlnR 0-500 nM with or without 25 nM GS; details: protein: recombinant; tags: N-His6; label: 3' DIG (Methods); blunt
T2 sequence: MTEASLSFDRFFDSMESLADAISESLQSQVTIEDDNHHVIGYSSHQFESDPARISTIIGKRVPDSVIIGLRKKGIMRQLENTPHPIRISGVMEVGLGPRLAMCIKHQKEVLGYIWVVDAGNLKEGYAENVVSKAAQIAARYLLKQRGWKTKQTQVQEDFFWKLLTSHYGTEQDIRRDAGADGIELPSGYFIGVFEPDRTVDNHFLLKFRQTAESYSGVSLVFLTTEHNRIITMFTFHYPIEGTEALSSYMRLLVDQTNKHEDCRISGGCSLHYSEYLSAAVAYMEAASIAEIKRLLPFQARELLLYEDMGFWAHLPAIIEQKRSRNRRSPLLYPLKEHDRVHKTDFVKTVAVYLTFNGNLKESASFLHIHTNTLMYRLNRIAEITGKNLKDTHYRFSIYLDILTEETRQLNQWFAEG

AdeR [4] = target: T2, AdeR; assay: EMSA; AdeR 100-600 nM; EMSA: 20 ul, 1 ug poly[d(A-T)], 0.3 nM probe, 30 min, 25 C; binding buffer (given for protein dialysis) 20 mM HEPES pH 7.6, 1 mM EDTA, 10 mM (NH4)2SO4, 1 mM DTT, 0.2% Tween 20, 30 mM KCl. SPR: SA chip, 250 RU DNA, GlnR 0-500 nM with or without 25 nM GS; details: protein: recombinant; tags: N-His6; label: 3' DIG (Methods); blunt

B1: nif promoter GlnR site II EMSA probe (nifR2) (dsDNA)
DNA 1: TTTTCAAGAAAGGTTGGAGTCAGGTTAACTGACACGTCGGATG
DNA 2: CATCCGACGTGTCAGTTAACCTGACTCCAACCTTTCTTGAAAA
B1: binds (GlnR [1]).

B2: SPR probe GlnR site I (TS1) (dsDNA)
DNA 1: ATACATATGTGTAATGTAATCTGACATTTGTTTTGACGA
DNA 2: TCGTCAAAACAAATGTCAGATTACATTACACATATGTATCCTACCCTACGTCCTCCTGC
DNA 3: GCAGGAGGACGTAGGGTAGG
B2: binds (GlnR [2]).

B3: ald1 promoter 40-bp mutated AdeR site (aldP1M) (dsDNA)
DNA 1: GAATGAAAAACTGACCTTGGATCCGTGATAAAACACAATC
DNA 2: GATTGTGTTTTATCACGGATCCAAGGTCAGTTTTTCATTC
B3: no binding (AdeR [3]).

B4: nif promoter GlnR site I EMSA probe (nifR1) (dsDNA)
DNA 1: AACGGAAACATGATACATATGTGTAATGTAATCTGACATTTGT
DNA 2: ACAAATGTCAGATTACATTACACATATGTATCATGTTTCCGTT
B4: binds (GlnR [1]).

B5: ald1 promoter 40-bp AdeR site (aldP1) (dsDNA)
DNA 1: GAATGAAAAACTGACCTTCTCATTGTGATAAAACACAATC
DNA 2: GATTGTGTTTTATCACAATGAGAAGGTCAGTTTTTCATTC
B5: binds (AdeR [4]).
